For the assay, the target named is native PfCSP on PfCSP-expressing Plasmodium berghei (PbPf) sporozoites (Plasmodium falciparum) (UniProt P19597). Briefly: cell-based or functional assay.
Sequence of UniProt P19597 (P19597 19-374 limits assumed): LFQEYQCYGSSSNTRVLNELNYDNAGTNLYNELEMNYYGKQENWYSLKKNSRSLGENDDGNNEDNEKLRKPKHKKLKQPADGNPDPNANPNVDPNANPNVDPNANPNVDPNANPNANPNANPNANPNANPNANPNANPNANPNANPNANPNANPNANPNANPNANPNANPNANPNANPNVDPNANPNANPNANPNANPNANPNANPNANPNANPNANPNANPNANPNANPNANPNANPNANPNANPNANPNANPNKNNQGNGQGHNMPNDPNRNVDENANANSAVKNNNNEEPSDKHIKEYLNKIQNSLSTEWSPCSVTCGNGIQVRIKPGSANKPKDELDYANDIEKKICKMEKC

In turn, anti-PfCSP 2A10 monoclonal antibody had a circumsporozoite precipitation reaction (CSPR), mean FSC-W of 1220.

The values are drawn from patent publication US20260151470A1.
